From PMC6219519

Assays:
[1] = biological target: (H3-H4)2 tetramer (wild type Xenopus laevis recombinant histones) (Xenopus laevis) (UniProt P84233); assay: FRET or BRET; single-molecule FRET with multi-parameter fluorescence detection, dynPDA and trace analysis, global four-state kinetic model; IβIα-wt nucleosomes on 170 bp Widom 601 DNA (dyes on the DNA), 20 pM labelled, total concentration varied with unlabelled nucleosomes; 150 mM NaCl, TE buffer pH 7.5, 1 mM ascorbic acid, 0.01% Nonidet P40; hexasome and tetramer stand on the DNA
[2] = biological target: hexasome: (H3-H4)2 tetramer with one H2A-H2B dimer on 170 bp Widom 601 DNA (Xenopus laevis) (UniProt P84233); assay: as above

H2A-H2B dimer (wild type Xenopus laevis recombinant histones) (from UniProt P06897 2-120; P02281 2-126) (complex)
Kd [1]: > 0.002 nM | relaxation time tR of hexasome/tetrasome exchange (estimated for [H2A-H2B] ≈10 pM) [1]: > 10000 s | Kd [2]: 0.039 nM | relaxation time tR of octasome/hexasome exchange (estimated for [H2A-H2B] ≈10 pM) [2]: < 300 s
